The values below come from the DeepSol protein solubility set.

The data set is described as follows: soluble on expression in E. coli; label from the status in PepcDB or PDB records.
Turning to “MGSDKIHHHHHHMSEPVKGAQTVTRALSVLKHISHAHPFGIAIGELSEVSQLDRATTYRLASTLVSFGLVERDAARKYRLGVEAMQLGLSAMRSAPIVGQLQPAMRRLARRTEDTVFLVVRSGDYGHCIHCEEGTYPVKAMVLQVGGMRLLGVGSAGMTLLSMLSDVEVLALYQRHQEEFSRGPSFAKLKRMVGEARERGYADTVDLVTEGVSGVGMRFELSAGSHAAVSVAAIRSRMTPERKKWIAEIIAEELQVSGFTPAYSRVS”, the “soluble on expression in E. coli” value was “not soluble”.
Regarding “MGSDKIHHHHHHMVRLNEIKMQDGKIFLITGANSGLGYETSKFLLERGATVIMCCRDLLKGEKAKKELLKFKFSGKIELVELDLSDLINVKKFAESIKNTFDHLDVLINNAGIMAPPKTLSKQGFEIQFAVNHLAHMFLTLELLPMLEEKNNSRVVTVTSGVQYFGKIQWEDLQGNLKYDRWASYAQSKLANVMFGLELDSKLKETNSKTSSLLAHPGFARTNLQPKSVEANQSWQEELAYKLMDPMFQSAKMGALPQITAATLTSASGGEQYGPRFNFRGFPKICRNAPKALNQTSRKKLWDISEKLIKDFDTLSKQSK”, the “soluble on expression in E. coli” value was “not soluble”.
In the case of “MGSDKIHHHHHHASEPVSVASTPETDEIDQLFDDMQLDGIVSYTAFRQAVTGYQKIEQKSKSIMTLIDFSKPSTEKRLYVLDMKNKKLLYTSVVSHGKNSGGNYATSFSNKNGSYKSSLGFYLTENTYQGRNGYSLVLNGLEKGINDQAKQRAIVMHGAAYANPNITASAGRLGRSLGCPALPQALAKPIIDTIKKGSVLFIYANNKDYLANSTFLSPRQTEYLSWAQPAN”, the “soluble on expression in E. coli” value is on record as “not soluble”.
To “MKTKLMTLQDATGFFRDGMTIMVGGFMGIGTPSRLVEALLESGVRDLTLIANDTAFVDTGIGPLIVNGRVRKVIASHIGTNPETGRRMISGEMDVVLVPQGTLIEQIRCGGAGLGGFLTPTGVGTVVEEGKQTLTLDGKTWLLERPLRADLALIRAHRCDTLGNLTYQLSARNFNPLIALAADITLVEPDELVETGELQPDHIVTPGAVIDHIIVSQESK” belongs “soluble”; to “METTQTLRFKTKALAVLSKCYDHAQTHLKGGVLQVNLLSVNYGGPRLAAVANAGTAGLISFEVSPDAVAEWQNHQSPEEAPAAVSFRNLAYGRTCVLGKELFGSAVEQASLQFYKRPQGGSRPEFVKLTMEYDDKVSKSHHTCALMPYMPPASDRLRNEQMIGQVLLMPKTASSLQKWARQQGSGGVKVTLNPDLYVTTYTSGEACLTLDYKPLSVGPYEAFTGPVAKAQDVGAVEAHVVCSVAADSLAAALSLCRIPAVSVPILRFYRSGIIAVVAGLLTSAGDLPLDLSVILFNHASEEAAASTASEPEDKSPRVQPLGTGLQQRPRHTVSPSPSPPPPPRTPTWESPARPETPSPAIPSHSSNTALERPLAVQLARKRTSSEARQKQKHPKKVKQAFNPLI”, “soluble”.
As to “MGHHHHHHSHMAYEISKKVLHIVGKTNATYKLIEEGDKILLGLSGGKDSIMLACILARMQKHAPFKFDFKAVTVHYGLGEDLKWLSDLCQEQGIEHEIIYTQIAATINEKRREKSSFCSFCSRLRRGTLYSKALEEGYNKVAIAHHLDDAVESFFMNFTYNGSLRSMPPIYRAENGLLVIRPLIKVREASSIHFVTSQNIPVAPDCNCPAKQPTSDKPPIARLATKNFLKEMQNLHPRFFDSLENAFNNVQANSFSDAKYLDA”, the “soluble on expression in E. coli” value was “not soluble”.
Next, “SAGVRGLRFVERFGDNTASLIKNAILLDQQKVEVFNIRFKSSRDFTIQIKLNAKGNYKKSEVEKYKSQIGVQDNELGDKEEGTLEADLIFTYTPPASNLFSKSNFDKLTKSINFNTNLKLEMVGKDEVMRKILNSSAFTNNLASVNYPNQAVNLLPYVLYSIL”: “not soluble”; “PKKEVVRIHASSGTTGKPTVVGYTKKDLKTWAELISRVVTAAGVTDEDTAQVAFGYGLFTGGFGLHYGLENVGASVIPMSSGNTEKQIMLMKDFETTVLICTPSYALYISEVAQKMGIDPKKDLKLKIGLFGGEACSESARTEIESKWGILATQNYGMSELMGPGVSGECEYQCGMHIS”: “not soluble”.
Next, “MSLINLDVWIDLTNAPHVHYFCQLIKKFEKEGIEYLLTFRDSGNLAKLVEIYNFVGKCIGKHGNTLKDKLIFYAERVIGLTELISNVKPKVAIAKHSVELPRVAFGLNIPVIFVVDNEHAEAQNKLTLPLADEIIKPIATDENKLKEFGGRNFISFEGTCEVANVNSRLKGYYPIDNEILKKLGICDDNPTIVMRPCPNSSYCNGHKDILPKIIEKLQKRIDCNIVVFPRDEHQKEIYREVNAIVPKETIDALSLLYNSDFMIGAGGTMNRESAILGIPTVSCYPQELLGVDKYLIEKDRMIHTNDIKEIINYVEDNLGKRMGVIELEDPTDLMFERVCNYLKEGHHHHHH”: “soluble”.
Consider “MIKLSSITAHILDIWHRRNSRSYIAHLRSLGIRIGDGCIFRDPLTTRIDVSRPALVSIGSNVDMNTYFQILTHDWASFVFRNKYHDFVNSSGRVEIGSNIYIGTNVIVLRGVTIGDNCVIGAGSVVTHDIPANSVAVGAPCRVVCSLEHHHHHH”, for which the “soluble on expression in E. coli” value is listed as “soluble”.
To “MAISSRNTLLAALAFIAFQAQAVNVTVAYQTSAEPAKVAQADNTFAKESGATVDWRKFDSGASIVRALASGDVQIGNLGSSPLAVAASQQVPIEVFLLASKLGNSEALVVKKTISKPEDLIGKRIAVPFISTTHYSLLAALKHWGIKPGQVEIVNLQPPAIIAAWQRGDIDGAYVWAPAVNALEKDGKVLTDSEQVGQWGAPTLDVWVVRKDFAEKHPEVVKAFAKSAIDAQQPYIANPDVWLKQPENISKLARLSGVPEGDVPGLVKGNTYLTPQQQTAELTGPVNKAIIDTAQFLKEQGKVPAVANDYSQYVTSRFVQ” belongs “soluble”; to “CGVGFIAAIDGKPRRSVVEKGIEALKAVWHRGAVDADGKTGDGAGIHVAVPQKFFKDHVKVIGHRAPDNKLAVGQVFLPRISLDAQEACRCIVETEILAFGYYIYGWRQVPINVDIIGEKANATRPEIEQIIVGNNKGVSDEQFELDLYIIRRRIEKAVKGEQINDFYICSLSARSIIYKGMFLAEQLTTFYPDLLDERFESDFAIYHQRYSTNTFPTWPLAQPFRMLAHNGEINTVKGNVNWMKAHETRMEHPAFGTHMQDLKPVIGVGLSDSGSLDTVFEVMVRAGRTAPMVKMMLVPQALTSSQTTPDNHKALIQYCNSVMEPWDGPAALAMTDGRWVVGGMDRNGLRPMRYTITTDGLIIGGSETGMVKIDETQVIEKGRLGPGEMIAVDLQSGKLYRDRELKDHLATLKPWDKWVQNTTHLDELVKTASLKGEPSDMDKAELRRRQQAFGLTMEDMELILHPMVEDGKEAIGSMGDDSPIAVLSDKYRGLHHFFRQNFSQVTNPPIDSLRERRVMSLKTRLGNLGNILDEDETQTRLLQLESPVLTTAEFRAMRDYMGDTAAEIDATFPVDGGPEALRDALRRIRQETEDAVRGGATHVILTDEAMGPARAAIPAILATGAVHTHLIRSNLRTFTSLNVRTAEGLDTHYFAVLIGVGATTVNAYLAQEAIAERHRRGLFGSMPLEKGMANYKKAIDDGLLKIMSKMGISVISSYRGGGNFEAIGLSRALVAEHFPAMVSRISGIGLNGIQKKVLEQHATAYNEEVVALPVGGFYRFRKSGDRHGWEGGVIHTLQQAVTNDSYTTFKKYSEQVNKRPPMQLRDLLELRSTKAPVPVDEVESITAIRKRFITPGMSMGALSPEAHGTLNVAMNRIGAKSDSGEGGEDPARFRPDKNGDNWNSAIKQVASGRFGVTAEYLNQCRELEIKVAQGAKPGEGGQLPGFKVTEMIARLRHSTPGVMLISPPPHHDIYSIEDLAQLIYDLKQINPDAKVTVKLVSRSGIGTIAAGVAKANADIILISGNSGGTGASPQTSIKFAGLPWEMGLSEVHQVLTLNRLRHRVRLRTDGGLKTGRDIVIAAMLGAEEFGIGTASLIAMGCIMVRQCHSNTCPVGVCVQDDKLRQKFVGTPEKVVNLFTFLAEEVREILAGLGFRSLNEVIGRTDLLHQVSRGAEHLDDLDLNPRLAQVDPGENARYCTLQGRNEVPDTLDARIVADARPLFEEGEKMQLAYNARNTQRAIGTRLSSMVTRKFGMFGLQPGHITIRLRGTAGQSLGAFAVQGIKLEVMGDANDYVGKGLSGGTIVVRPTTSSPLETNKNTIIGNTVLYGATAGKLFAAGQAGERFAVRNSGATVVVEGCGSNGCEYMTGGTAVILGRVGDNFAAGMTGGMAYVYDLDDSLPLYINDESVIFQRIEVGHYESQLKHLIEEHVTETQSRFAAEILNDWAREVTKFWQVVPKEMLNRLEVPVHLPKAISAE”, “soluble”; to “MNTPFDFPEGAGRLVYVRPVPVAELPEDVQSMARGLDHIYALHGADGERLALVRDRHLAFVLARQNDLAPVNVH”, “not soluble”.
Regarding “MAHHHHHHMPFTEVYGVEQFRDIANDPTLTVVCFSAVWCGPCKTIEKDLDRLTYEFASVRFAKVDADNNTDIVSKCRVMQLPTFMLVRAGQMLGYVIGADLAQLKAKIREEANKS”, the “soluble on expression in E. coli” value was “soluble”.
To “MSDVQSSLTGTWYNELNSKMELTANKDGTLTGKYLSKVGDVYVPYPLSGRYNLQPPAGQGVALGWAVSWENSKIHSATTWSGQFFSESSPVILTQWLLSSSTARGDVWESTLVGNDSFTKTAPTEQQIAHAQLHCRAPRLK” belongs “soluble”; to “MPSNDIQGLELPQSYFNAAAKRQKYAMKPGLSALEKNAVIKAAYRQIFERDITKAYSQSISYLESQVRNGDISMKEFVRRLAKSPLYRKQFFEPFINSRALELAFRHILGRGPSSREEVQKYFSIVSSGGLPALVDALVDSQEYADYFGEETVPYLRGLGVEALEHHHHHH”, “soluble”.
With “FLLPPSTACCTQLYRKPLSDKLLRKVIQVELQEADGDCHLQAFVLHLAQRSICIHPQNPSLSQWFEHQERKLHGTLPKLNFGMLRKMG”, the “soluble on expression in E. coli” value is given as “soluble”.
Next, “MGSDKIHHHHHHMSAYPPLNSLRIFEAAARLESFSAAAGELFVTHGAVSKQIKQLEDWLGVQLFERSGGRVRLTDAGWRYLVQVQDGLDLIANATSQLLQPNRQRRLTINSTPTFAAFWLLPRLAGFRSQLPELELHLVTSDRDLSRLDAPFDVAIRRGPGDWPGHIAKPFLKEWELPLCSPALLSRQPLAQAADLTQHTLLHADTRPTAWPRWLTLAGAPELKPACSLHFDKFSLALQAAVDGLGVVLGPLPMAHELIAAGKLVSPLPGPVVTVRDYCWVVPRMSAEDATVATFCRWLEGEAEKAGLSGVESG”: “not soluble”.
Next, “MIRELFEKEGFTLDEEQERKFSIYLQELLRWNKVHNLTSIKKPEEIVRRHFIDSVSVVRCFERIGLDLRGKHFADVGSGAGFPGVPLKIYLKDIKLTLIESVSKKCSFLEYLKIKLNEDYRVLCTRAEKVEEKFDVVLARALGEFEEVKEILEKLSIGYVFVYKGSKLKEEWLKDYKLCELSLSFMPKSYILWKKVLEHHHHHH”: “not soluble”; “KTFEPTNPFFRVVLRPSYLYRGCIMYLPSGFAEKYLSGISGFIKVQLAEKQWPVRCLYKAGRAKFSQGWYEFTLENNLGEGDVCVFELLRTRDFVLKVTAFRVNEYV”: “not soluble”; “MSLKMSDIAKMAGVSKAAVSFALNGKPGVSDETRKKIFKVIKDQGYEPLRKHKKGGVRKIASISLIIIQDRTGMMNRSYASLPFFDTLVSELSQNVSGAGGQMQIVNLDINHLHEGLNNEALQQSKASIVLATDLNQKQVQLINRKLRNVIFVDNYFEYIQADFVSIDNFQGAYRAGKFIVKKGYRKIGYVASNHAISNFLQRRSGFRKAMREANIQIPPEYVFSLNPTELRGSLPALFRQKNNWPEAIFCEDDYMALRLLNALTRQGIKVPQDIAVMGFDDISEDTMVIPELTTIHVPITQIVDQAINQLQCKVADTDWLPQKCFISTKLIERESEGHHHHHH”: “not soluble”.
